Results reported in the supplement of paper PMC10567573.
± gives the standard deviation.

Assay: protein stability index of a GFP-peptide fusion (GPS, HEK-293T) (PSI 1-6); higher = more stable
[1] = treatment: DMSO, c terminus: a fixed tail appended
[2] = treatment: MLN4924 1 uM, 8 h, c terminus: a fixed tail appended
[3] = treatment: DMSO, c terminus: native
[4] = treatment: MLN4924 1 uM, 8 h, c terminus: native
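Also: 24-mer peptide tiles fused after GFP, lentivirally expressed, FACS-sorted into six equal bins by GFP/DsRed ratio, decoded by Illumina sequencing, PSI is the read-weighted mean bin number.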

Sequence | protein stability index [1] | protein stability index [2] | protein stability index [3] | protein stability index [4]
DSLDEARSSGSEGTPADTGDLSPG [PWWP2B] | 5.6 ± 0.18 | 5.52 ± 0.15 | – | –
EREEEDDALDSEGRDSEGPAEGEG [KCNG1] | 5.55 ± 0.29 | 5.74 ± 0.12 | – | –
GGRDFSAPLTISRVHAGSKAALAA [PDLIM4] | 3.59 ± 0.24 | 3.85 ± 0.27 | – | –
ENMVTVGFFSCMGTLCIGAAAFSQ [KCNK9] | 3.39 ± 0.5 | 2.91 ± 0.16 | – | –
EAMYHCCWNTSYCSIKCQQEHWHA [ZMYND11] | 2.3 ± 0.45 | 2.65 ± 0.43 | – | –
LAQAAGFAPQTGARPSETFARFCK [DNAAF3] | 3.52 ± 0.23 | 3.57 ± 0.4 | – | –
NVKLQELINHKKAEDTEKKDEPSK [CEP70] | 5.35 ± 0.16 | 5.2 ± 0.21 | – | –
GAGHCSASPGPAAPTARMPGRLRG | 4.82 ± 0.34 | 4.78 ± 0.25 | – | –
PREHHGRGGMLSASAETLPAGFRV [PPFIA4] | 3.5 ± 0.44 | 3.95 ± 0.076 | – | –
PTIDTGYDSQPQDVLGIRQLERPL [TRAF3IP2] | 4.2 ± 0.28 | 4.4 ± 0.37 | – | –
IEDLRAQIFANTVDNARIVLQIDN [KRT18] | 2.6 ± 0.24 | 2.67 ± 0.35 | – | –
SGLIYLTNHIAPHARNGLSLKEEH [IKZF1] | 2.58 ± 0.37 | 2.71 ± 0.19 | – | –
EDSKELRALRKMVSNMSGPSGEEE [CBY2] | 5.15 ± 0.21 | 5.25 ± 0.13 | – | –
NSTSYSNYYRTWNVVVHDWLYYYA [SOAT1] | 2.63 ± 0.52 | 2.56 ± 0.55 | – | –
WQSESLPVSLSASQSWHTESLPVS [BCL2L13] | 3.26 ± 0.23 | 3.35 ± 0.14 | – | –
PPLSGRSTPKLTSRSAAQDLDRMG [PPFIA4] | 4.49 ± 0.19 | 4.62 ± 0.096 | – | –
FNMLHDNSKPCISLNGPLSTSRHV [ADAMTS4] | 3.21 ± 0.22 | 3.26 ± 0.25 | – | –
YSPAVMNYSIPSNVTNLEGGPGRQ [ESR2] | 3.8 ± 0.4 | 3.75 ± 0.4 | – | –
GTEEKKKLIRDFDEKQQEANETLA [VTI1B] | 5.57 ± 0.22 | 5.51 ± 0.15 | – | –
GSSETNLLQHLLEACGRCEEVPEA [PYCR3] | 3.74 ± 0.19 | 4.19 ± 0.14 | – | –
QHYTETALDEIKLLKCVRESDPSD [SRPK2] | 4.82 ± 0.22 | 4.92 ± 0.16 | – | –
LLGLRTFVAFAAKLWSFFIYLLRR [CTDNEP1] | 4.28 ± 0.38 | 4.16 ± 0.3 | – | –
GGVLIDRYGRRTAIILSSCLLGLG [SLC2A12] | 2.86 ± 1 | 2.74 ± 1.3 | – | –

Sequence | protein stability index [1] | protein stability index [2] | protein stability index [3] | protein stability index [4]
TEQALRLSVEADINGLRRVLDELT [KRT17] | 3.07 ± 0.2 | 3.18 ± 0.25 | – | –
GATTLGDMIYVSGGFDGSRRHTSM [KLHL12] | 2.88 ± 0.38 | 3.02 ± 0.5 | – | –
DSGGSDVDLDPTDGKLFPSDGFRD [ELF3] | 5.38 ± 0.16 | 5.42 ± 0.15 | – | –
QPYPLPHVRHMAYQLCHALRFLHE [CLK3] | 2.34 ± 0.1 | 2.1 ± 0.23 | – | –
ATQIQQLLQDKQFELALQLAEMKD [VPS39] | 3.11 ± 0.32 | 3.41 ± 0.43 | – | –
NRPSFDAILYYYQSGGRLRRPVNV [KCNA1] | 2.24 ± 0.085 | 2.37 ± 0.14 | – | –
EKRERALEEVERAILEMKWKVRAE [ZBED2] | 3.77 ± 0.27 | 3.74 ± 0.53 | – | –
YPPQMGEEYSQIIYSTKLYRFFKY [BTBD10] | 2.88 ± 0.71 | 2.73 ± 0.83 | – | –
VLRCQLGDRLNVEVDAAPPVDLNK [KRT36] | 4.06 ± 0.11 | 4.14 ± 0.25 | – | –
PLSPPPINYNGIFSLKQEETLDYG [NEUROD6] | 4.63 ± 0.38 | 4.36 ± 0.37 | – | –
DLEPGVLMSAQTITSETTSTTTTT [EPB41L3] | 5.19 ± 0.32 | 5.17 ± 0.11 | – | –
VFGRGDNISDVSKFLEDDKWMEE [LUC7L3] | – | – | 2.4 ± 0.54 | 3.38 ± 0.96
AKVKGHRSQKHKERIRLLRQKREA [C18orf25] | 4.07 ± 0.57 | 4.38 ± 0.16 | – | –
GTASSGSSRLPQPSGAGKTVVGVP [ZC2HC1A] | 4.74 ± 0.41 | 4.72 ± 0.12 | – | –
SYKARLPLRLFLIIANTMAFQNDV [SCD] | 2.66 ± 0.53 | 2.5 ± 0.2 | – | –
IQAEERLDMEKRRCRQSLEDSESL [LRRC45] | 5.08 ± 0.27 | 5.16 ± 0.1 | – | –
MNVDFDAPLGYKEPERQVQHEEST [UFD1] | 5.28 ± 0.062 | 5.31 ± 0.29 | – | –
QPPEFRNESSLASTLKTLLFFTAL [VMA21] | 2.42 ± 0.32 | 2.39 ± 0.11 | – | –
DVDLTIHGRHIDCPATWGPSVEQA [FOXJ1] | 3.95 ± 0.16 | 3.94 ± 0.3 | – | –
VGESVEEAFYYIHNLVVACEIQVR [ADD1] | 2.79 ± 0.37 | 2.91 ± 0.72 | – | –
GVGFATRKVAGMAKPNMIISVNGD [FABP4] | 3.02 ± 0.28 | 3.04 ± 0.47 | – | –
LPLAEREHVSRALCIHTGRELRCK [TRIB1] | 3.99 ± 0.32 | 3.93 ± 0.2 | – | –
FQPQPVQPQQGYIPPMAQPGLPPV [ZNF207] | 3.5 ± 0.31 | 3.74 ± 0.26 | – | –

Sequence | protein stability index [1] | protein stability index [2] | protein stability index [3] | protein stability index [4]
AKPGSTEKGLPLRKTHVLLGRSHD [MFSD9] | 3.79 ± 0.23 | 3.86 ± 0.17 | – | –
LLQQNKSIQSLTLEWNSLGTWDDA [LRRC45] | 2.65 ± 0.094 | 2.64 ± 0.42 | – | –
ETPGCATLLPASLFVNSHPGIDRP [DCAF4] | 3.61 ± 0.3 | 3.75 ± 0.1 | – | –
EQFHEAASKMESTIKPRRVEPVCS [CHCHD6] | 4.42 ± 0.31 | 4.61 ± 0.14 | – | –
AGGFQQRQGLKYCLPLTFCIHTGL [FBXO3] | 2.58 ± 0.57 | 2.4 ± 0.24 | – | –
GPGIPPLMPGMPPGMPPPVPRPGI [ZNF207] | 4.29 ± 0.23 | 4.35 ± 0.33 | – | –
VLMVGPNFRVGKKIGCGNFGELRL [CSNK1G1] | 2.42 ± 0.053 | 2.69 ± 0.61 | – | –
QLSRELSTLRNLFKQLPEPLLASS [CEBPB] | 2.28 ± 0.1 | 2.37 ± 0.29 | – | –
CNGILTEKMEEEEQTCDPDSSLHW [ZNF396] | 5.13 ± 0.18 | 5.01 ± 0.28 | – | –
GCVSRCWEVQVSPTCPVCKDRASP [TRIM35] | 4.04 ± 0.28 | 4.13 ± 0.44 | – | –
GGRGVSTCSTRFVSGGSAGGYGGG [KRT13] | 3.77 ± 0.41 | 3.97 ± 0.15 | – | –
SNLETIFRIIDSDHSGFISLDEFR [PPEF2] | 2.52 ± 0.24 | 2.73 ± 0.36 | – | –
LSIVLERMRYEGVVDIFQTVKMLR [PTPRD] | 2.1 ± 0.48 | 2.42 ± 0.58 | – | –
RPGQAPIGNPPVGPIGGMMPPQPG [ZNF207] | 4.14 ± 0.22 | 4.28 ± 0.38 | – | –
ERPWIKRMIFKLFSQETVMKFVPR [APMAP] | 2.71 ± 0.75 | 2.48 ± 1.1 | – | –
ESTLYPNPYHQPYISRKYFATRPG [TPRG1] | 2.76 ± 0.43 | 3.03 ± 0.088 | – | –
KFYAVLKGTILYLQKDEYRPDKAL [PSD2] | 2.83 ± 0.53 | 2.58 ± 0.44 | – | –
CSSFMAPPVTDLGELRRRPGDMKT [CPOX] | 3.43 ± 0.3 | 3.31 ± 0.48 | – | –
KDIAPEKQLLNSAVIAQQRRKPDP [DLC1] | 5 ± 0.086 | 5.25 ± 0.17 | – | –
QRFRQFQYREAAGPHEAFNKLWEL [ZNF449] | 2.17 ± 0.18 | 2.33 ± 0.19 | – | –
YFSTPQTMDLFLNYSMNMQPEDV [NANOGP8] | – | – | 2.34 ± 0.21 | 2.27 ± 0.55
HDYIVRSGERWLERYEIDSLIGKG [DYRK1B] | 2.95 ± 0.49 | 3.11 ± 0.38 | – | –
RGPVVPKHSTFGQSLTQRLHALKL [GNAS] | 2.4 ± 0.29 | 2.36 ± 0.28 | – | –

Sequence | protein stability index [1] | protein stability index [2] | protein stability index [3] | protein stability index [4]
FALQGLPLNCAPCPRRSEPVVQCQ [IRX6] | 2.7 ± 0.16 | 2.79 ± 0.28 | – | –
TQELVAIKIIKNKKAFLNQAQIEL [DYRK1B] | 2.18 ± 0.27 | 2.17 ± 0.3 | – | –
DVRLLPRRLPLAFRDATSAPLRKL [DYRK1B] | 3.17 ± 0.27 | 3.02 ± 0.15 | – | –
NNSNLQRMGSSESTDSGFCLDSPG [CDC25A] | 4.43 ± 0.92 | 4.8 ± 0.3 | – | –
SQDFVGEKLGSGEPSHSVKVHTVP [ATE1] | 4.78 ± 0.17 | 4.83 ± 0.26 | – | –
VPQLVTGRCATRAFHRKSHSLDLN [RNF180] | 2.35 ± 0.2 | 2.6 ± 0.41 | – | –
TPIQLQELLALETALGGQCVDRQE [TCAP] | 4.52 ± 0.11 | 4.47 ± 0.26 | – | –
TWASPAEVVDLTLDEDSRRKYLL [C18orf25] | – | – | 4.49 ± 0.44 | 4.68 ± 0.53
PATGGAIPSWQIRTVKLIRYVSNW [PKD2L1] | 2.09 ± 0.24 | 2.24 ± 0.39 | – | –
TFFGTELAPVRQQELASLLRTYLA [PBXIP1] | 2.22 ± 0.29 | 2.48 ± 0.43 | – | –
LSLLTNRGSKMFKLRQMRVEKFIY [MYOZ1] | 2.13 ± 0.34 | 2.38 ± 0.14 | – | –
FHRSQTLSYRNGYAIVRRPTVGIG [EFHC1] | 2.44 ± 0.39 | 2.54 ± 0.22 | – | –
KRQVTHFQFLSWPDYGVPSSAASL [PTPN9] | 2.21 ± 0.35 | 2.38 ± 0.18 | – | –
AIGALLVCYHYYADWFMSLGVGLL [TMEM40] | 3.087 ± 0.018 | 2.86 ± 0.62 | – | –
VLKTSRSTPLSPAYISLVEEEDQH [KLHL13] | 4.77 ± 0.13 | 4.91 ± 0.17 | – | –
ILVLKTDSQDLVASFRVTTGTSNT [RBBP5] | 2.2 ± 0.41 | 2.36 ± 0.53 | – | –
LVENDQQLQKILSIPQSSLEPLKA [ACSBG2] | 3.66 ± 0.34 | 3.99 ± 0.41 | – | –
FNAGIQQAFQLPKLGALLSRCRKL [ZBED1] | 2.63 ± 0.31 | 2.63 ± 0.29 | – | –
ESVADLLALEEPVDYKQSVLNVAG [SLC6A17] | 4.43 ± 0.1 | 4.58 ± 0.24 | – | –
RILDELTLCKADLEAQVESLKEEL [KRT36] | 3.76 ± 0.35 | 3.68 ± 0.54 | – | –
